Experimental data published in patent US20220380407A1 (WASHINGTON UNIVERSITY, published 2022).
Read-outs that look alike come from different tables or passages of the source. Positions of bridges follow the written chain, without caps; N, C: chain ends. Non-standard residues stand in square brackets, D forms with d. No end group written: not given here. *: point of attachment. X10 = 1‑((2,4-dinitrophenyl)sulfonyl)piperidin‑4‑yl carbamate, O=C(OC1CCN(S(=O)(=O)c2ccc([N+](=O)[O-])cc2[N+](=O)[O-])CC1)*; X9 = 1‑((5-chloro-2-methoxyphenyl)sulfonyl)piperidin‑4‑yl carbamate, COc1ccc(Cl)cc1S(=O)(=O)N1CCC(OC(=O)*)CC1; X12 = 1‑(mesitylsulfonyl)piperidin‑4‑yl carbamate, Cc1cc(C)c(S(=O)(=O)N2CCC(OC(=O)*)CC2)c(C)c1; kbt = C-terminal Arg ketobenzothiazole; Fmoc = O=C(OCC1c2ccccc2-c2ccccc21)*; kt = C-terminal Arg ketothiazole

Tests used:
Assay in all cases: cell-based or functional assay
[1] = target: T1, activated hepsin (#4776-SE-010, R&D Systems) (UniProt P05981 45-417, limits assumed)
T1 sequence (P05981 45-417 limits assumed): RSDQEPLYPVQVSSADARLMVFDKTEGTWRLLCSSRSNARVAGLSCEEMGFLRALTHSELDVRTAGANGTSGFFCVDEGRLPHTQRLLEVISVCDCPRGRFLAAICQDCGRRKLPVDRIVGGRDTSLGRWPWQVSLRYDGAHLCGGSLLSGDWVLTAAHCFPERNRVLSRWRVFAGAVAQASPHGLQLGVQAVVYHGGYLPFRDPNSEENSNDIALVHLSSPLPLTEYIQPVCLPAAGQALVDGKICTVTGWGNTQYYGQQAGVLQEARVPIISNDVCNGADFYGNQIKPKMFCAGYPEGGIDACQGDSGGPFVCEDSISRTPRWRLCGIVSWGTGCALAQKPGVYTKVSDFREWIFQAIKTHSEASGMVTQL

[2] = target: T2, matriptase (#3946-SE-010, R&D Systems) (UniProt Q9Y5Y6 615-855)
T2 sequence (looked up): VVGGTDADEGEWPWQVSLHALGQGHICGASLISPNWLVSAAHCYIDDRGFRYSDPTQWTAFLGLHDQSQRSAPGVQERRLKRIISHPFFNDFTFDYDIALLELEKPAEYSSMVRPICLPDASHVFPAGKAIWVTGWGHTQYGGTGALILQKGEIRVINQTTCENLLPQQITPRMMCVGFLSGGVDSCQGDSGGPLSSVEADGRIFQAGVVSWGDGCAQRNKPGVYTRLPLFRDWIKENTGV

[3] = target: T3, recombinant N-terminal His-tag HGFA serine protease domain (UniProt Q04756 373-655)
T3 sequence (looked up): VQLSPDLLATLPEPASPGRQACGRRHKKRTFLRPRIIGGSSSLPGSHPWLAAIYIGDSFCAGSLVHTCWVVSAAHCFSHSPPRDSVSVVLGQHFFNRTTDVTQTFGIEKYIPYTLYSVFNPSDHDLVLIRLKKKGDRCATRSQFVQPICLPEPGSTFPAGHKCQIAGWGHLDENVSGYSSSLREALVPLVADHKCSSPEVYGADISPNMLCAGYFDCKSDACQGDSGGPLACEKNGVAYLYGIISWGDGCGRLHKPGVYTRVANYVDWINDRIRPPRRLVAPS

[4] = target: T4, KLK5 (#1108-SE-010, R&D Systems) (UniProt Q9Y337 23-293, limits assumed)
T4 sequence (looked up): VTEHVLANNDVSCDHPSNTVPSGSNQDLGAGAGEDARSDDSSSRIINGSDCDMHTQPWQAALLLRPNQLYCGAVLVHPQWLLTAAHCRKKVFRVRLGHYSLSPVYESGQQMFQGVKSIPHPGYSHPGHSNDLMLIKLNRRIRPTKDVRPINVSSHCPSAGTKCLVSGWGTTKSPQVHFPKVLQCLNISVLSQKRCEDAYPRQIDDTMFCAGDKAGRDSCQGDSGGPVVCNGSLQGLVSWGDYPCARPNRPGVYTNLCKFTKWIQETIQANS

[5] = target: T1, activated hepsin (#4776-SE-010, R&D …); remark: listed apart in the source
[6] = target: T2, matriptase (#3946-SE-010, R&D Systems); remark: listed apart in the source
human TMPRSS2 = human TMPRSS2 (human, UniProt O15393 1-492)
human TMPRSS2, sequence (O15393 whole entry): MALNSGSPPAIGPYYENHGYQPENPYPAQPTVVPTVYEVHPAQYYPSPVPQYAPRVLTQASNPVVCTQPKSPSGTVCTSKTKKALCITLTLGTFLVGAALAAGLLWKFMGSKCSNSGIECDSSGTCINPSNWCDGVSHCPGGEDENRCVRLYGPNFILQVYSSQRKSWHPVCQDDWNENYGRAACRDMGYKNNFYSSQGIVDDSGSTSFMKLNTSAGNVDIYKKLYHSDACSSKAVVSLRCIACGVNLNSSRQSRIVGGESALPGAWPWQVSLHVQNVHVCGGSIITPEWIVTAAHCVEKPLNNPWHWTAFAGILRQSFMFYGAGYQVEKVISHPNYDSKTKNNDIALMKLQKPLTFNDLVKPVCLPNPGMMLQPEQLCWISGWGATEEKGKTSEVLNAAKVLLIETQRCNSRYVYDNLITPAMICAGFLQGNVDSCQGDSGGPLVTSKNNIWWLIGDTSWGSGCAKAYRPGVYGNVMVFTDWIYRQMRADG

[7] = target: T3, recombinant N-terminal His-tag HGFA …; remark: listed apart in the source
[8] = target: recombinant thrombin (#1473-SE-010, R&D Systems) (UniProt P00734 44-622)
[9] = target: T1, activated hepsin (#4776-SE-010, R&D …); remark: listed apart in the source
[10] = target: T2, matriptase (#3946-SE-010, R&D Systems); remark: listed apart in the source
[11] = target: T3, recombinant N-terminal His-tag HGFA …; remark: listed apart in the source
[12] = target: Factor Xa (#1063-SE-010, R&D Systems) (UniProt P00742 41-488, limits assumed)
Factor Xa (#1063-SE-010, R&D Systems), sequence (P00742 41-488 limits assumed): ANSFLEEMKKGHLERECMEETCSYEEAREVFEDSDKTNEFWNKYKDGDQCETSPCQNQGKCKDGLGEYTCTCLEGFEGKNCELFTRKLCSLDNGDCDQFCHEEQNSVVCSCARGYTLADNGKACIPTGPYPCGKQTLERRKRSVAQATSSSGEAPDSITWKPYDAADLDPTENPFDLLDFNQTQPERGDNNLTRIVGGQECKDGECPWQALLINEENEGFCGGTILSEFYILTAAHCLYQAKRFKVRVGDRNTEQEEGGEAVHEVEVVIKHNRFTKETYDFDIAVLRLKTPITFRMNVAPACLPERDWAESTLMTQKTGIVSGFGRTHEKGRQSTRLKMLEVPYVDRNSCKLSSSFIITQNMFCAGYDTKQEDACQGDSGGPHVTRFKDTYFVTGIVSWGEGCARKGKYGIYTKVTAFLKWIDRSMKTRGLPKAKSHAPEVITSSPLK

X10-Leu-Arg-kbt [1-((2,4-dinitrophenyl)sulfonyl)piperidin-4-yl Leu-Arg-kbt carbamate (8k)]
Hepsin IC50 [1]: 110 nM | Matriptase IC50 [2]: 10000 nM | HGFA IC50 [3]: > 20000 nM

X9-Leu-Arg-kbt [1-((5-chloro-2-methoxyphenyl)sulfonyl)piperidin-4-yl Leu-Arg-kbt carbamate (8l)]
Hepsin IC50 [1]: 60 nM | Matriptase IC50 [2]: 4000 nM | HGFA IC50 [3]: 6300 nM

X12-Leu-Arg-kbt [1-(mesitylsulfonyl)piperidin-4-yl Leu-Arg-kbt carbamate (8m)]
Hepsin IC50 [1]: 110 nM | Matriptase IC50 [2]: > 20000 nM | HGFA IC50 [3]: 8800 nM

{2‑phenyl‑1‑(piperidin-4-yl)ethyl carbamate}-Leu-Arg-kbt [2-phenyl-1-(piperidin-4-yl)ethyl Leu-Arg-kbt carbamate (11b)]
Hepsin IC50 [1]: 2 nM | Matriptase IC50 [2]: 20 nM | HGFA IC50 [3]: 6000 nM

Ac-SKLR-kbt [Ac-SKLR kbt, ZFH7053]
KLK5 IC50 [4]: 2120 nM

Ac-KQLR-kbt [Ac-KQLR-kbt, ZFH7006]
Hepsin IC50 [5]: 0.17 nM | Matriptase IC50 [6]: 1.1 nM | Calu-3 EC50 (human TMPRSS2): 78 nM | HGFA IC50 [7]: 60 nM | KLK5 IC50 [4]: 1790 nM

Ac-SQLR-kt [Ac-SQLR-kt, ZFH6138]
KLK5 IC50 [4]: 3940 nM

Fmoc-Pro-Arg-kbt [FmocPRkbt]
KLK5 IC50 [4]: 3680 nM

Fmoc-Trp-Arg-kbt [FmocWRkbt]
KLK5 IC50 [4]: 4390 nM

Ac-Trp-Phe-Arg-kbt [Ac-WFR-kbt, PK-1-102A1]
KLK5 IC50 [4]: > 20000 nM

Ac-[dW]-Phe-Arg-kbt [Ac-dWFR-kbt, PK-1-89A1]
Hepsin IC50 [5]: 100 nM | Matriptase IC50 [6]: 29 nM | Calu-3 EC50 (human TMPRSS2): 32 nM | HGFA IC50 [7]: 346 nM

B1: Cyclo(DMK)R-kbt, VD3173 (peptide)
peptide: Ac-DMKR-kbt
modifications: lactam 1-3; not fully specified; printed as Cyclo(DMK)R-kbt; also: N-terminal acetyl described as 6-acetamido
Hepsin IC50 [5]: 5.9 nM | Matriptase IC50 [6]: 1 nM | Calu-3 EC50 (human TMPRSS2): 119 nM | HGFA IC50 [7]: 3240 nM | Thrombin* (IC50 nM) [8]: > 20000 nM | Hepsin (IC50 nM) [9]: 5.9 nM | Matriptase (IC50 nM) [10]: 0.98 nM | HGFA (IC50 nM) [11]: 3240 nM | Factor Xa* (IC50 nM) [12]: 1400 nM

Ac-DQKR-kbt (lactam 1-3; also: N-terminal acetyl described as 6-acetamido) [Cyclo(DQK)R-kbt, VD3152]
Hepsin IC50 [5]: 22 nM | Matriptase IC50 [6]: 7.7 nM | Calu-3 EC50 (human TMPRSS2): 138 nM | HGFA IC50 [7]: 16100 nM | Thrombin* (IC50 nM) [8]: > 20000 nM | Hepsin (IC50 nM) [9]: 22.2 nM | Matriptase (IC50 nM) [10]: 7.7 nM | HGFA (IC50 nM) [11]: 16100 nM | Factor Xa* (IC50 nM) [12]: > 20000 nM

Leu-Leu-Arg-{kbt-Val-NH2} (also: N-terminal cap inconsistent in filing (H or Ac)) [H-LLR-kbt V-amide ZFH7182]
Hepsin IC50 [5]: 0.01 nM | Calu-3 EC50 (human TMPRSS2): 2060 nM | HGFA IC50 [7]: 44 nM

Ac-WLFR-kbt [Ac-WLFR-kbt, ZFH7064]
Hepsin IC50 [5]: 0.79 nM | Matriptase IC50 [6]: 12 nM | Calu-3 EC50 (human TMPRSS2): 150 nM | HGFA IC50 [7]: 266 nM

Ac-Leu-Leu-Arg-kt [Ac-LLR-kt, ZFH6201]
Hepsin IC50 [5]: 4.6 nM | Matriptase IC50 [6]: 56 nM | Calu-3 EC50 (human TMPRSS2): 349 nM | HGFA IC50 [7]: 506 nM
